What was measured:
[1] = biological target: T1, bovine serum albumin (BSA) (Bos taurus, UniProt P02769 P02769:25-607); experiment: SPR; control; PBS with 1 mM MgCl2 pH 7.4; also no response current at 1 uM in electrochemical assay; conditions: label: biotin (SPR); hairpin
Protocol: Biotinylated CaAp-1 was immobilized on an SPR chip (SA chip), and variations in SPR signal when IgE solutions of various concentrations (100 μL) were fed were observed. Upon measurement of interaction, an Mg2+-containing PBS buffer (138 mM NaCl, 2.7 mM KCl, 8.1 mM NaHPO₄, 1.1 mM KHPO₄, 1 mM MgCl₂, pH 7.4) was used, and the flow rate was set at 20 μL/min. Observed as a control were variations in SPR signal when bovine serum albumin (BSA) solutions of various concentrations were fed.
To beads (20 μL; solid amount: 10 μL) with “NEUTRAVIDIN” (trade name) immobilized as a biotin-binding substance thereon, the biotin-modified 14-mer capture oligonucleotide (0.5 nmol) was added. With 100 mM phosphate buffer and 150 mM […] (pH7.2), the total volume was adjusted to 500 μL. The resultant mixture was stirred overnight at 4° C. to immobilize the 14-mer capture oligonucleotide on the beads. […] Using the supernatant (20 μL) and 10 mM MOPS (pH 7.2), which contained CaCl₂ (1 mM) and PQQ (1 μM), as a reaction solution (total volume: 4 mL), a gold electrode as a working electrode and a platinum electrode as an opposing electrode, the response current was measured at an impression potential of +100 mV vs Ag/AgCl while adding glucose to a final concentration of 60 mM. […]

thrombin = thrombin (UniProt P00734;P00734 P00734:328-363,P00734:364-622); experiment: EMSA; 10 mM MOPS pH 7.4, room temp; thrombin-bound aptamer does not hybridize FITC 15-mer complementary strand; PQQGDH-labeled aptamer bead assay detection limit 100
[2] = biological target: T1, bovine serum albumin (BSA); experiment: control; PQQGDH-labeled aptamer, electrochemical bead capture assay; no BSA-concentration-dependent current; conditions: G4 with inserted hairpin (15-nt loop 27-41, 5-bp stem)
Protocol: Each sample solution (100 μL), which contained thrombin (0 to 10 μg/mL, […]) and the PQQGDH-labeled aptamer (0.1 U, approx. 10 μmol) prepared above in Procedure (2), was added to the DNA-immobilized carrier (10 μL) obtained above in Procedure (1), and the resulting mixture was stirred at room temperature for 15 minutes and then centrifuged. Using the thus-obtained supernatant (20 μL) and 10 mM MOPS (pH 7.2, 4 mL in total), which contained mPMS (1-methoxyphenazine methosulphate) (6 mM), PQQ (1 μM) and CaCl₂ (1 mM), as a reaction solution, a gold electrode as a working electrode and a platinum electrode as an opposing electrode, the response current was measured at an impression potential of +100 mV vs Ag/AgCl while adding glucose to a final concentration of 60 mM. The measurement was conducted at 25° C. With respect to each of sample solutions containing thrombin at 50 to 1,000 μg/mL ([…]), detection was similarly conduced by doubling the amounts of the DNA-immobilized carrier and ap-GDH to be employed.
A thrombin-concentration-dependent increase in current value was observed up to the level of 10 μg/mL. When BSA was used as a control in place of thrombin, the resultant current value was low, no BSA-concentration-dependent increase in current value was observed (FIG. 4(b)), and the detection limit was 100 ng/mL (2.7 nM) (FIG. 4(a)). […]

T1 sequence (P02769 25-607, one chain of several): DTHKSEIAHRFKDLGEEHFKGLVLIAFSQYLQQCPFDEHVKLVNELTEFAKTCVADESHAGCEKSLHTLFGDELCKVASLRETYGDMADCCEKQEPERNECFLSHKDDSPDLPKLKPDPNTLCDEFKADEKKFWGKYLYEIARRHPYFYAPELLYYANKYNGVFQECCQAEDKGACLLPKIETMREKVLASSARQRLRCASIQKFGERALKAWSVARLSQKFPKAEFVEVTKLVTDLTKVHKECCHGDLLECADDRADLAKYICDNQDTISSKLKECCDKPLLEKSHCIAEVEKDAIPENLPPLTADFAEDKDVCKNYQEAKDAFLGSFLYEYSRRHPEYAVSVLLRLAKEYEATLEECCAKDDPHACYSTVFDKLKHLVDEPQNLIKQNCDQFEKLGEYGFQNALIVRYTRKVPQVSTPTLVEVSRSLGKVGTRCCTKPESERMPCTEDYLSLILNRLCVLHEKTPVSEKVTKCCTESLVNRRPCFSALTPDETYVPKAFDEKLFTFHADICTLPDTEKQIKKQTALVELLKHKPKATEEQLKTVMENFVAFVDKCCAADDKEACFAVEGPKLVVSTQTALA

Binder | binding result [1] | binding result (thrombin) | binding result [2]
TCACGTTTATCCGTCCCTCCTAGTGGCGTGA (ssDNA) [CaAp-1 IgE-binding aptamer] | no binding | – | –
structure-switching thrombin aptamer with inserted hairpin (22-46 nt) (ssDNA) DNA: CACTGGTAGGTTGGTGTGGTTGGACGACGAATTCATGATCACGTCCTTGGGGCCAGTG | – | binds | no binding

Reference: patent US20090305254, “Method and Apparatus for Assaying Test Substance in Sample” (TECHNO MEDICA CO., LTD., published 2009)
